# Reference: IntAct's records for PubMed 21455181
# B1: Sharpin (Homo sapiens), Q9H0F6 (parent)
# chain: MAPPAGGAAAAASDLGSAAVLLAVHAAVRPLGAGPDAEAQLRRLQLSADPERPGRFRLELLGAGPGAVNLEWPLESVSYTIRGPTQHELQPPPGGPGTLSLHFLNPQEAQRWAVLVRGATVEGQNGSKSNSPPALGPEACPVSLPSPPEASTLKGPPPEADLPRSPGNLTEREELAGSLARAIAGGDEKGAAQVAAVLAQHRVALSVQLQEACFPPGPIRLQVTLEDAASAASAASSAHVALQVHPHCTVAALQEQVFSELGFPPAVQRWVIGRCLCVPERSLASYGVRQDGDPAFLYLLSAPREAPATGPSPQHPQKMDGELGRLFPPSLGLPPGPQPAASSLPSPLQPSWSCPSCTFINAPDRPGCEMCSTQRPCTWDPLAAAST
# Variants of: B1
# Conditions: with rnf31_human RNF31, Q96EP0
# rnf31_human RNF31, Q96EP0, sequence (Q96EP0 whole entry): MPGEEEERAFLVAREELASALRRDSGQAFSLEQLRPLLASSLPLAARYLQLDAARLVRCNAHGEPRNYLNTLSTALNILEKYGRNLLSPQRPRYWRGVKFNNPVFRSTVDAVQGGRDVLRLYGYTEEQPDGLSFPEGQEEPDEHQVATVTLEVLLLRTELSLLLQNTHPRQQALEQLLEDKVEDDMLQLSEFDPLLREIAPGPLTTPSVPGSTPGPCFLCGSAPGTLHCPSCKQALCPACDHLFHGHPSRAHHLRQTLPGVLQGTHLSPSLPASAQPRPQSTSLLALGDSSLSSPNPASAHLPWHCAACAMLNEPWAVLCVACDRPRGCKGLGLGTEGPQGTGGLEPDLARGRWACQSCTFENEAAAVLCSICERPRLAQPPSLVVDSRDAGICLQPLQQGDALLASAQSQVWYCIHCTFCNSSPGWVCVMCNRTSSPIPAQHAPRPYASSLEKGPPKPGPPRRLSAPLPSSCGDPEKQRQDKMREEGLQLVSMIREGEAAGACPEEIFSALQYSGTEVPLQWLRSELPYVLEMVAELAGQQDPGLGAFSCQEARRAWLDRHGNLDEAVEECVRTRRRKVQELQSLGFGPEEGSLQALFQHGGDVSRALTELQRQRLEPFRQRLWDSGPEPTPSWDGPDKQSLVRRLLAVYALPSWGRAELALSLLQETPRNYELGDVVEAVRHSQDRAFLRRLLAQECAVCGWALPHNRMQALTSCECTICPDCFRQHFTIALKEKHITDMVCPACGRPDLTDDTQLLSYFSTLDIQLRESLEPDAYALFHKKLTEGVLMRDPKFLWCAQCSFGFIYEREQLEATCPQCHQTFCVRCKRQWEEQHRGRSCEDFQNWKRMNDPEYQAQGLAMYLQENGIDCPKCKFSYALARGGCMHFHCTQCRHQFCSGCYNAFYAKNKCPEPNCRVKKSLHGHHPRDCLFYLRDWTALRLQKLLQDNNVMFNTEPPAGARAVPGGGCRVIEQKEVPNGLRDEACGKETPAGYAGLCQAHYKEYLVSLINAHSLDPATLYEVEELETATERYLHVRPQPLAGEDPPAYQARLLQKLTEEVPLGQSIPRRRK
row,effect of a mutation on the interaction,Variant
1,disrupting interaction,I272A
